We go through 12 molecules from US20110294738A1, “PTHR1 RECEPTOR COMPOUNDS” (priority 2008, published 2011).

Values joined by “and” are separate entries in the source; they are usually repeats but may differ in a detail not shown here. Identical values can stand only once. * marks the point of attachment. Palmitoyl = CCCCCCCCCCCCCCCC(=O)*

In this experiment the target is PTHR1 receptor.
PTHR1 receptor, sequence (P25961 whole entry): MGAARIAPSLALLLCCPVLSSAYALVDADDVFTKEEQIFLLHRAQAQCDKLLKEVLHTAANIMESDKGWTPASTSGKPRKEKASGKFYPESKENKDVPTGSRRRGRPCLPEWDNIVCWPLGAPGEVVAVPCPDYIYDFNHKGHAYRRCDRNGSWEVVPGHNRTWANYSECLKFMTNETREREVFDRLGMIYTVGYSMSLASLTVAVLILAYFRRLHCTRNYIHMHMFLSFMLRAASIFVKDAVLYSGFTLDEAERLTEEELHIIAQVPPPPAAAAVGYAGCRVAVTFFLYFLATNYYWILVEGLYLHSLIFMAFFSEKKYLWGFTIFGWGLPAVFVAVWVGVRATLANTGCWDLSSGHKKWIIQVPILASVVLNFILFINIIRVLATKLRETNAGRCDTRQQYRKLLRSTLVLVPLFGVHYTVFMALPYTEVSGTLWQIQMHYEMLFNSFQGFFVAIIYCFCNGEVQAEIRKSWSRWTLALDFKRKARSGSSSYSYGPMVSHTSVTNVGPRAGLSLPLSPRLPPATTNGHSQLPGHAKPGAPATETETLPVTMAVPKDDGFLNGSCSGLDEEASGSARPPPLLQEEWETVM

B1: Compound 44 (peptide)
peptide: Palmitoyl-NIVRVLATKLRETNAGRSD-NH2
SMILES: CCCCCCCCCCCCCCCC(=O)N[C@@H](CC(N)=O)C(=O)N[C@H](C(=O)N[C@H](C(=O)N[C@@H](CCCNC(=N)N)C(=O)N[C@H](C(=O)N[C@@H](CC(C)C)C(=O)N[C@@H](C)C(=O)N[C@H](C(=O)N[C@@H](CCCCN)C(=O)N[C@@H](CC(C)C)C(=O)N[C@@H](CCCNC(=N)N)C(=O)N[C@@H](CCC(=O)O)C(=O)N[C@H](C(=O)N[C@@H](CC(N)=O)C(=O)N[C@@H](C)C(=O)NCC(=O)N[C@@H](CCCNC(=N)N)C(=O)N[C@@H](CO)C(=O)N[C@@H](CC(=O)O)C(N)=O)[C@@H](C)O)[C@@H](C)O)C(C)C)C(C)C)[C@@H](C)CC
Take B1: the Fold Shift of EC50 stood at 2 fold and the Inhibition of Maximal Response is -8.3%.

B2: Compound 1 (peptide)
peptide: Palmitoyl-RRLHSTRNYIHMH-NH2
SMILES: CCCCCCCCCCCCCCCC(=O)N[C@@H](CCCNC(=N)N)C(=O)N[C@@H](CCCNC(=N)N)C(=O)N[C@@H](CC(C)C)C(=O)N[C@@H](Cc1c[nH]cn1)C(=O)N[C@@H](CO)C(=O)N[C@H](C(=O)N[C@@H](CCCNC(=N)N)C(=O)N[C@@H](CC(N)=O)C(=O)N[C@@H](Cc1ccc(O)cc1)C(=O)N[C@H](C(=O)N[C@@H](Cc1c[nH]cn1)C(=O)N[C@@H](CCSC)C(=O)N[C@@H](Cc1c[nH]cn1)C(N)=O)[C@@H](C)CC)[C@@H](C)O
With B2, the Fold Shift of EC50 was found to be 1.3 fold and the Inhibition of Maximal Response was 5.5%.

B3: Compound 7 (peptide)
peptide: Palmitoyl-AYFRRLHSTRNYIH-NH2
SMILES: CCCCCCCCCCCCCCCC(=O)N[C@@H](C)C(=O)N[C@@H](Cc1ccc(O)cc1)C(=O)N[C@@H](Cc1ccccc1)C(=O)N[C@@H](CCCNC(=N)N)C(=O)N[C@@H](CCCNC(=N)N)C(=O)N[C@@H](CC(C)C)C(=O)N[C@@H](Cc1c[nH]cn1)C(=O)N[C@@H](CO)C(=O)N[C@H](C(=O)N[C@@H](CCCNC(=N)N)C(=O)N[C@@H](CC(N)=O)C(=O)N[C@@H](Cc1ccc(O)cc1)C(=O)N[C@H](C(=O)N[C@@H](Cc1c[nH]cn1)C(N)=O)[C@@H](C)CC)[C@@H](C)O
On to B3, for which the Fold Shift of EC50 was determined as 1.2 fold and the Inhibition of Maximal Response amounted to 36%.

B4: Compound 45 (peptide)
peptide: Palmitoyl-VRVLATKLRETNAGRSDTR-NH2
SMILES: CCCCCCCCCCCCCCCC(=O)N[C@H](C(=O)N[C@@H](CCCNC(=N)N)C(=O)N[C@H](C(=O)N[C@@H](CC(C)C)C(=O)N[C@@H](C)C(=O)N[C@H](C(=O)N[C@@H](CCCCN)C(=O)N[C@@H](CC(C)C)C(=O)N[C@@H](CCCNC(=N)N)C(=O)N[C@@H](CCC(=O)O)C(=O)N[C@H](C(=O)N[C@@H](CC(N)=O)C(=O)N[C@@H](C)C(=O)NCC(=O)N[C@@H](CCCNC(=N)N)C(=O)N[C@@H](CO)C(=O)N[C@@H](CC(=O)O)C(=O)N[C@H](C(=O)N[C@@H](CCCNC(=N)N)C(N)=O)[C@@H](C)O)[C@@H](C)O)[C@@H](C)O)C(C)C)C(C)C
B4: the Fold Shift of EC50 was 1.4 fold and the Inhibition of Maximal Response was 9.1%.

B5: Compound 36 (peptide)
peptide: Palmitoyl-HSLIFMAFFSEKKYLWGFT-NH2
SMILES: CCCCCCCCCCCCCCCC(=O)N[C@@H](Cc1c[nH]cn1)C(=O)N[C@@H](CO)C(=O)N[C@@H](CC(C)C)C(=O)N[C@H](C(=O)N[C@@H](Cc1ccccc1)C(=O)N[C@@H](CCSC)C(=O)N[C@@H](C)C(=O)N[C@@H](Cc1ccccc1)C(=O)N[C@@H](Cc1ccccc1)C(=O)N[C@@H](CO)C(=O)N[C@@H](CCC(=O)O)C(=O)N[C@@H](CCCCN)C(=O)N[C@@H](CCCCN)C(=O)N[C@@H](Cc1ccc(O)cc1)C(=O)N[C@@H](CC(C)C)C(=O)N[C@@H](Cc1c[nH]c2ccccc12)C(=O)NCC(=O)N[C@@H](Cc1ccccc1)C(=O)N[C@H](C(N)=O)[C@@H](C)O)[C@@H](C)CC
Take B5: the Fold Shift of EC50 came to 1.2 fold and the Inhibition of Maximal Response was 5.9%.

B6: Compound 47 (peptide)
peptide: Palmitoyl-KLRETNAGRSDTRQQRKLL-NH2
SMILES: CCCCCCCCCCCCCCCC(=O)N[C@@H](CCCCN)C(=O)N[C@@H](CC(C)C)C(=O)N[C@@H](CCCNC(=N)N)C(=O)N[C@@H](CCC(=O)O)C(=O)N[C@H](C(=O)N[C@@H](CC(N)=O)C(=O)N[C@@H](C)C(=O)NCC(=O)N[C@@H](CCCNC(=N)N)C(=O)N[C@@H](CO)C(=O)N[C@@H](CC(=O)O)C(=O)N[C@H](C(=O)N[C@@H](CCCNC(=N)N)C(=O)N[C@@H](CCC(N)=O)C(=O)N[C@@H](CCC(N)=O)C(=O)N[C@@H](CCCNC(=N)N)C(=O)N[C@@H](CCCCN)C(=O)N[C@@H](CC(C)C)C(=O)N[C@@H](CC(C)C)C(N)=O)[C@@H](C)O)[C@@H](C)O
Take B6: the Fold Shift of EC50 worked out at 2.7 fold and the Inhibition of Maximal Response worked out at 8.3%.

B7: Compound 46 (peptide)
peptide: Palmitoyl-VLATKLRETNAGRSDTRQQ-NH2
SMILES: CCCCCCCCCCCCCCCC(=O)N[C@H](C(=O)N[C@@H](CC(C)C)C(=O)N[C@@H](C)C(=O)N[C@H](C(=O)N[C@@H](CCCCN)C(=O)N[C@@H](CC(C)C)C(=O)N[C@@H](CCCNC(=N)N)C(=O)N[C@@H](CCC(=O)O)C(=O)N[C@H](C(=O)N[C@@H](CC(N)=O)C(=O)N[C@@H](C)C(=O)NCC(=O)N[C@@H](CCCNC(=N)N)C(=O)N[C@@H](CO)C(=O)N[C@@H](CC(=O)O)C(=O)N[C@H](C(=O)N[C@@H](CCCNC(=N)N)C(=O)N[C@@H](CCC(N)=O)C(=O)N[C@@H](CCC(N)=O)C(N)=O)[C@@H](C)O)[C@@H](C)O)[C@@H](C)O)C(C)C
Turning to B7, the Fold Shift of EC50 turned out to be 0.9 fold and the Inhibition of Maximal Response was determined as 20.3%.

B8: Compound 95 (peptide)
peptide: Palmitoyl-AGRSDTRQQYRKLLFS-NH2
SMILES: CCCCCCCCCCCCCCCC(=O)N[C@@H](C)C(=O)NCC(=O)N[C@@H](CCCNC(=N)N)C(=O)N[C@@H](CO)C(=O)N[C@@H](CC(=O)O)C(=O)N[C@H](C(=O)N[C@@H](CCCNC(=N)N)C(=O)N[C@@H](CCC(N)=O)C(=O)N[C@@H](CCC(N)=O)C(=O)N[C@@H](Cc1ccc(O)cc1)C(=O)N[C@@H](CCCNC(=N)N)C(=O)N[C@@H](CCCCN)C(=O)N[C@@H](CC(C)C)C(=O)N[C@@H](CC(C)C)C(=O)N[C@@H](Cc1ccccc1)C(=O)N[C@@H](CO)C(N)=O)[C@@H](C)O
Take B8: the Fold Shift of EC50 worked out at 19 fold and the Inhibition of Maximal Response is -5.7%.

B9: Compound 35 (peptide)
peptide: Palmitoyl-YLHSLIFMAFFSEKKYLWGFT-NH2
SMILES: CCCCCCCCCCCCCCCC(=O)N[C@@H](Cc1ccc(O)cc1)C(=O)N[C@@H](CC(C)C)C(=O)N[C@@H](Cc1c[nH]cn1)C(=O)N[C@@H](CO)C(=O)N[C@@H](CC(C)C)C(=O)N[C@H](C(=O)N[C@@H](Cc1ccccc1)C(=O)N[C@@H](CCSC)C(=O)N[C@@H](C)C(=O)N[C@@H](Cc1ccccc1)C(=O)N[C@@H](Cc1ccccc1)C(=O)N[C@@H](CO)C(=O)N[C@@H](CCC(=O)O)C(=O)N[C@@H](CCCCN)C(=O)N[C@@H](CCCCN)C(=O)N[C@@H](Cc1ccc(O)cc1)C(=O)N[C@@H](CC(C)C)C(=O)N[C@@H](Cc1c[nH]c2ccccc12)C(=O)NCC(=O)N[C@@H](Cc1ccccc1)C(=O)N[C@H](C(N)=O)[C@@H](C)O)[C@@H](C)CC
As for B9, the Fold Shift of EC50 turned out to be 1.1 fold and the Inhibition of Maximal Response is 24.5%.

B10: Compound 9 (peptide)
peptide: Palmitoyl-LAYFRRLHSTRNYI-NH2
SMILES: CCCCCCCCCCCCCCCC(=O)N[C@@H](CC(C)C)C(=O)N[C@@H](C)C(=O)N[C@@H](Cc1ccc(O)cc1)C(=O)N[C@@H](Cc1ccccc1)C(=O)N[C@@H](CCCNC(=N)N)C(=O)N[C@@H](CCCNC(=N)N)C(=O)N[C@@H](CC(C)C)C(=O)N[C@@H](Cc1c[nH]cn1)C(=O)N[C@@H](CO)C(=O)N[C@H](C(=O)N[C@@H](CCCNC(=N)N)C(=O)N[C@@H](CC(N)=O)C(=O)N[C@@H](Cc1ccc(O)cc1)C(=O)N[C@H](C(N)=O)[C@@H](C)CC)[C@@H](C)O
As to B10, the Fold Shift of EC50 was found to be 1.1 fold and the Inhibition of Maximal Response stood at 12.7%.

B11: Compound 48 (peptide)
peptide: Palmitoyl-RETNAGRSDTRQQRKLLKS-NH2
SMILES: CCCCCCCCCCCCCCCC(=O)N[C@@H](CCCNC(=N)N)C(=O)N[C@@H](CCC(=O)O)C(=O)N[C@H](C(=O)N[C@@H](CC(N)=O)C(=O)N[C@@H](C)C(=O)NCC(=O)N[C@@H](CCCNC(=N)N)C(=O)N[C@@H](CO)C(=O)N[C@@H](CC(=O)O)C(=O)N[C@H](C(=O)N[C@@H](CCCNC(=N)N)C(=O)N[C@@H](CCC(N)=O)C(=O)N[C@@H](CCC(N)=O)C(=O)N[C@@H](CCCNC(=N)N)C(=O)N[C@@H](CCCCN)C(=O)N[C@@H](CC(C)C)C(=O)N[C@@H](CC(C)C)C(=O)N[C@@H](CCCCN)C(=O)N[C@@H](CO)C(N)=O)[C@@H](C)O)[C@@H](C)O
For the molecule B11, the Fold Shift of EC50 was 7 fold and the Inhibition of Maximal Response was -3.3%.

B12: Compound 49 (peptide)
peptide: Palmitoyl-TNAGRSDTRQQRKLLKSTL-NH2
SMILES: CCCCCCCCCCCCCCCC(=O)N[C@H](C(=O)N[C@@H](CC(N)=O)C(=O)N[C@@H](C)C(=O)NCC(=O)N[C@@H](CCCNC(=N)N)C(=O)N[C@@H](CO)C(=O)N[C@@H](CC(=O)O)C(=O)N[C@H](C(=O)N[C@@H](CCCNC(=N)N)C(=O)N[C@@H](CCC(N)=O)C(=O)N[C@@H](CCC(N)=O)C(=O)N[C@@H](CCCNC(=N)N)C(=O)N[C@@H](CCCCN)C(=O)N[C@@H](CC(C)C)C(=O)N[C@@H](CC(C)C)C(=O)N[C@@H](CCCCN)C(=O)N[C@@H](CO)C(=O)N[C@H](C(=O)N[C@@H](CC(C)C)C(N)=O)[C@@H](C)O)[C@@H](C)O)[C@@H](C)O
Regarding B12, the Fold Shift of EC50 is 1.5 fold and 2.3 fold.
